Laboratory results: patent US20190309050A1 (SUZHOU THINKING POWER BIOTECHNOLOGY, published 2019)

What was measured:
[1] = molecular target: Robo1 protein (ORIGEN, Art. No.: TP327713) (UniProt Q9Y6N7); assay: SPR (BIAcore), Robo1 bound to CM5 chip; column headed 'Kd(nM)'
[2] = molecular target: Robo1 protein (ORIGEN, Art. No.: TP327713) (UniProt Q9Y6N7); assay: ELISA, Robo1 coated at 1 µg/ml, detection with anti-HSA-HRP; stability test, samples 'after treatment' (treatment not described); after treatment (stability test), binding ELISA on coated Robo1
[3] = molecular target: Robo1 protein (ORIGEN, Art. No.: TP327713) (UniProt Q9Y6N7); assay: SPR (BIAcore), Robo1 bound to CM5 chip
[4] = molecular target: T1, Robo1 protein (ORIGEN, Art. No.: TP327713) (UniProt Q9Y6N7-5 1-1606, limits assumed); assay: SPR (BIAcore), Robo1 bound to CM5 chip; column headed 'Kd(nM)'
T1 construct: Bought recombinant protein; also called receptor Robo1; receptor protein Robo1
T1 sequence (Q9Y6N7 other isoform, or with tags, fused parts or gaps limits assumed): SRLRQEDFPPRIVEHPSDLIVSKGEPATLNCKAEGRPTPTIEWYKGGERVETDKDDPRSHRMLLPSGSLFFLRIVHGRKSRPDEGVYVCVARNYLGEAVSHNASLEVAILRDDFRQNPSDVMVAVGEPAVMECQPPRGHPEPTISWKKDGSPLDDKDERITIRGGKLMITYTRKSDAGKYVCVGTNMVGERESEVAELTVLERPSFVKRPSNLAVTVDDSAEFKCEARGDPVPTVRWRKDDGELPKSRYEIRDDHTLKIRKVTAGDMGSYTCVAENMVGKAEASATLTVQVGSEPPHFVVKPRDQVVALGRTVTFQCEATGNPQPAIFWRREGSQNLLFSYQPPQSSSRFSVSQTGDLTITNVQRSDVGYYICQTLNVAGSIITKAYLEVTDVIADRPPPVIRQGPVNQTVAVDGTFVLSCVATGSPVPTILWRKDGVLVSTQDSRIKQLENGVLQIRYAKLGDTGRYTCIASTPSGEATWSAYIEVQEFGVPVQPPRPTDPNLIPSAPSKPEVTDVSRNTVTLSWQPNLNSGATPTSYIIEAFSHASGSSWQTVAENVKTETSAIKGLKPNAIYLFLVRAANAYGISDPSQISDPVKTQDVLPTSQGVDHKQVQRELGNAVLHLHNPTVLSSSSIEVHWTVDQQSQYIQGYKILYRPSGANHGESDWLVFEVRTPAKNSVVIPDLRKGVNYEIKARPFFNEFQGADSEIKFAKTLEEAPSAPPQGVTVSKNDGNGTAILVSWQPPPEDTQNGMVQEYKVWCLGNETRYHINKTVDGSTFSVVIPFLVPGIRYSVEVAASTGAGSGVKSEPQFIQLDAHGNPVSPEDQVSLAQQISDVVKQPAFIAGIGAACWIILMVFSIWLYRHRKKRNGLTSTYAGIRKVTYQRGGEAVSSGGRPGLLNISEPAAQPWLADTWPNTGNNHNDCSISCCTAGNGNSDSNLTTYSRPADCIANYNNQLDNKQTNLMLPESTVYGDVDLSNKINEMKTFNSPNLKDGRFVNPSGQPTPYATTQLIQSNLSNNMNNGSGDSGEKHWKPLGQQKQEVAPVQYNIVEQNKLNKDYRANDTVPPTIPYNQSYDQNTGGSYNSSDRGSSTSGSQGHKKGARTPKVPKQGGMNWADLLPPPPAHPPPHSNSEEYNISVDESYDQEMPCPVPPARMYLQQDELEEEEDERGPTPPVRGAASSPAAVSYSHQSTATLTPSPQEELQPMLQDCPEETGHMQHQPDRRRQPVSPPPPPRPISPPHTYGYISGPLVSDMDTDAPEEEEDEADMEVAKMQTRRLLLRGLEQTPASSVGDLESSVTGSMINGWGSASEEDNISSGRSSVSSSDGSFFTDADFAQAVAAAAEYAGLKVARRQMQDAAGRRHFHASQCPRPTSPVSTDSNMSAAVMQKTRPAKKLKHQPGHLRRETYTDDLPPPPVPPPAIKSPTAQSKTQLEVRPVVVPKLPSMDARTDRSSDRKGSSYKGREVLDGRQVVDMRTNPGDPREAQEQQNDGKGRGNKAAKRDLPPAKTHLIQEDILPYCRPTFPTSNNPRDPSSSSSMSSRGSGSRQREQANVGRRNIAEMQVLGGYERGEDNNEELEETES
Protocol: (§1) The affinity constant between the protein and Robo1 protein was detected by SPR (Surface Plasmon resonance BIAcore 200) method. […] Kinetic measurements were performed according to the method referred by Canziani et al. (2004, Anal. Biochem. 325: 301-307). Furthermore, the affinity of the Slit2N protein (Slit2N is a protein having a molecular weight of about 120 kDa at the N-terminus of the Slit2 protein) to Robo1 protein was also determined by the same method.

[5] = molecular target: T1, Robo1 protein (ORIGEN, Art. No.: …); assay: SPR (BIAcore), Robo1 bound to CM5 chip; column headed 'KD(M)', by arithmetic the dissociation rate; exponent doubtful
Protocol: as §1

[6] = molecular target: T1, Robo1 protein (ORIGEN, Art. No.: …); assay: SPR (BIAcore), Robo1 bound to CM5 chip
Protocol: as §1

Robo1 protein (ORIGEN, Art. No.: TP327713) (UniProt Q9Y6N7), sequence (Q9Y6N7 other isoform, or with tags, fused parts or gaps limits assumed): as above

Kd [1] [nM] | EC50 [2] [nM] | kon [3] [M⁻¹ s⁻¹] | Kd [4] [nM] | koff [5] [s⁻¹] | kon [6] [M⁻¹ s⁻¹] | Molecule
2.8 | 215 | 177000 |  |  |  | Slit2D2-HSA (as disclosed in Patent Application PCT/CN2015/092079) (from UniProt O94813 271-479; P02768 25-609)
 |  |  | 4.5 | 0.00339 | 744000 | Slit2N protein (ligand, UniProt O94813 31-1121, looked up) QCSCSGSTVDCHGLALRSVPRNIPRNTERLDLNGNNITRITKTDFAGLRHLRVLQLMENKISTIERGAFQDLKELERLRLNRNHLQLFPELLFLGTAKLYRLDLSENQIQAIPRKAFRGAVDIKNLQLDYNQISCIEDGAFRALRDLEVLTLNNNNITRLSVASFNHMPKLRTFRLHSNNLYCDCHLAWLSDWLRQRPRVGLYTQCMGPSHLRGHNVAEVQKREFVCSGHQSFMAPSCSVLHCPAACTCSNNIVDCRGKGLTEIPTNLPETITEIRLEQNTIKVIPPGAFSPYKKLRRIDLSNNQISELAPDAFQGLRSLNSLVLYGNKITELPKSLFEGLFSLQLLLLNANKINCLRVDAFQDLHNLNLLSLYDNKLQTIAKGTFSPLRAIQTMHLAQNPFICDCHLKWLADYLHTNPIETSGARCTSPRRLANKRIGQIKSKKFRCSAKEQYFIPGTEDYRSKLSGDCFADLACPEKCRCEGTTVDCSNQKLNKIPEHIPQYTAELRLNNNEFTVLEATGIFKKLPQLRKINFSNNKITDIEEGAFEGASGVNEILLTSNRLENVQHKMFKGLESLKTLMLRSNRITCVGNDSFIGLSSVRLLSLYDNQITTVAPGAFDTLHSLSTLNLLANPFNCNCYLAWLGEWLRKKRIVTGNPRCQKPYFLKEIPIQDVAIQDFTCDDGNDDNSCSPLSRCPTECTCLDTVVRCSNKGLKVLPKGIPRDVTELYLDGNQFTLVPKELSNYKHLTLIDLSNNRISTLSNQSFSNMTQLLTLILSYNRLRCIPPRTFDGLKSLRLLSLHGNDISVVPEGAFNDLSALSHLAIGANPLYCDCNMQWLSDWVKSEYKEPGIARCAGPGEMADKLLLTTPSKKFTCQGPVDVNILAKCNPCLSNPCKNDGTCNSDPVDFYRCTCPYGFKGQDCDVPIHACISNPCKHGGTCHLKEGEEDGFWCICADGFEGENCEVNVDDCEDNDCENNSTCVDGINNYTCLCPPEYTGELCEEKLDFCAQDLNPCQHDSKCILTPKGFKCDCTPGYVGEHCDIDFDDCQDNKCKNGAHCTDAVNGYTCICPEGYSGLFCEFSPPMVLPR
